Assay results published in patent publication US10766960 (dated 2020).

T1: FcgRIa (human, UniProt P12314)
T1 chain: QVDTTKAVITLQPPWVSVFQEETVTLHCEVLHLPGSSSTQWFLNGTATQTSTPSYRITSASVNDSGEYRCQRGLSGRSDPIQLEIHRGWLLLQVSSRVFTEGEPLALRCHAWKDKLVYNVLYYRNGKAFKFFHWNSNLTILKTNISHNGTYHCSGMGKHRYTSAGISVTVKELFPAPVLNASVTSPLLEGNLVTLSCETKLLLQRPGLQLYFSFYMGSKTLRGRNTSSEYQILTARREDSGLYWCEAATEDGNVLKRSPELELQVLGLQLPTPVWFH

T2: FcgRIIb (human, UniProt P31994)
T2 chain: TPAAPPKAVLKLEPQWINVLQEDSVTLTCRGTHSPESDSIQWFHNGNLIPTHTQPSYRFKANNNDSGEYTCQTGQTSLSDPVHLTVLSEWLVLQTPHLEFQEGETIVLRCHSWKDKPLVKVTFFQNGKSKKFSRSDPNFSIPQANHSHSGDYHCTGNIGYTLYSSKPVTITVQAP

T3: FcgRIIa H (human, UniProt P12318)
T3 chain: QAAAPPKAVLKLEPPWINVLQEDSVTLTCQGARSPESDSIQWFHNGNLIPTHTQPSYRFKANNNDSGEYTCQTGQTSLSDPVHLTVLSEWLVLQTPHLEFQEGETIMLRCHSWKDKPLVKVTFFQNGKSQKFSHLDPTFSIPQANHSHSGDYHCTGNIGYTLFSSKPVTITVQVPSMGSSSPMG

T4: FcgRIIa R (human, UniProt P12318)
T4 chain: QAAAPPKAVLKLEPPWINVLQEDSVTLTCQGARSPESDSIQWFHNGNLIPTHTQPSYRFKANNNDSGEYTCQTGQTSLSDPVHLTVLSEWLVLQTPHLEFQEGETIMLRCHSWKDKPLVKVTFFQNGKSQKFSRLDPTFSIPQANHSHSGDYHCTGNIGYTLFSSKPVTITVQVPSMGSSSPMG


How the values were obtained:
Assay in all cases: SPR
FcgRIIIa V = FcgRIIIa V (human, UniProt P08637)
FcgRIa = biological target: T1, FcgRIa
FcgRIIIa F = FcgRIIIa F (human, UniProt P08637)
FcgRIIb = biological target: T2, FcgRIIb
FcgRIIa H = biological target: T3, FcgRIIa H
FcgRIIa R = biological target: T4, FcgRIIa R

FcgRIIIa V, sequence (P08637 17-208 F176V): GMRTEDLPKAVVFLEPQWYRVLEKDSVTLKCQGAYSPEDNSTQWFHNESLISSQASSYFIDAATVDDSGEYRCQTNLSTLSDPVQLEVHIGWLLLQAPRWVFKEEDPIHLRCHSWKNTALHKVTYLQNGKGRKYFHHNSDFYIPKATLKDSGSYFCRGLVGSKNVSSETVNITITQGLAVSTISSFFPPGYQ
FcgRIIIa F, sequence (P08637 17-208): as the sequence (P08637 17-208 F176V) above, with V160F counted along it

Kd (FcgRIIIa V) | Kd (FcgRIa) | Kd (FcgRIIIa F) | Kd (FcgRIIb) | Kd (FcgRIIa H) | Kd (FcgRIIa R) | Binder
18 nM | 0.46 nM | 39 nM | 400 nM | 47 nM | 18 nM | H240-Kn179/H240-Hl089/L73-k0 (antibody) chain 1: QDQLVQSGAEVKKPGASVKVSCKASGFNIKDTYIQWVRQAPGQGLEWMGRIDPLRKQTKYREKFEGRVTITADTSTNTAYMELSSLRSEDTAVYYCVRSGREFDYWGQGTLVTVSSASTKGPSVFPLAPSSKSTSGGTAALGCLVKDYFPEPVTVSWNSGALTSGVHTFPAVLQSSGLYSLSSVVTVPSSSLGTQTYICNVNHKPSNTKVDKKVEPKSCDKTHTCPPCPAPEYYWGPMVFLFPPKPKDTLMISRTPEVTCVVVDVSDEDPEVKFNWYVDGVEVHNAKTKPREKQYNATYRVVSVLTVLHQDWLNGKEYKCKVSNKDLPAPIEKTISKAKGQPREPQVCTLPPSRDELTKNQVSLWCLVKGFYPSDIAVEWESNGQPENNYKTTPPVLDSDGSFFLYSKLTVDKSRWQQGNVFSCSVMHEALHNHYTQKSLSLSP chain 2: QDQLVQSGAEVKKPGASVKVSCKASGFNIKDTYIQWVRQAPGQGLEWMGRIDPLRKQTKYREKFEGRVTITADTSTNTAYMELSSLRSEDTAVYYCVRSGREFDYWGQGTLVTVSSASTKGPSVFPLAPSSKSTSGGTAALGCLVKDYFPEPVTVSWNSGALTSGVHTFPAVLQSSGLYSLSSVVTVPSSSLGTQTYICNVNHKPSNTKVDKKVEPKSCDKTHTCPPCPAPELLTGPSVFLFPPKPKDTLMISRTPEVTCVVVDVSHEEPEVKFNWYVDGVEVHNAKTKPREEQYNSTYRVVSVLTVLHQDWLNGKEYKCKVSNDALPKPIEETISKAKGQPREPQVYTLPPSRCELTKNQVSLSCAVKGFYPSDIAVEWESNGQPENNYKTTPPVLDSDGSFFLVSKLTVDKSRWQQGNVFSCSVMHEALHNHYTQKSLSLSP chain 3: DIQMTQSPSSLSASVGDRVTITCRASQDIHKYIAWYQQKPGQAPRLLIQYTSTLQPGVPSRFSGSGSGTDYTFTISSLQPEDIATYYCLQYEQLRTFGGGTKVEIKRTVAAPSVFIFPPSDEQLKSGTASVVCLLNNFYPREAKVQWKVDNALQSGNSQESVTEQDSKDSTYSLSSTLTLSKADYEKHKVYACEVTHQGLSSPVTKSFNRGEC
1.8 nM | < 0.024 nM | 11 nM | 290 nM | 35 nM | 16 nM | H240-Kn193/H240-Hl204/L73-k0 (antibody) chain 1: QDQLVQSGAEVKKPGASVKVSCKASGFNIKDTYIQWVRQAPGQGLEWMGRIDPLRKQTKYREKFEGRVTITADTSTNTAYMELSSLRSEDTAVYYCVRSGREFDYWGQGTLVTVSSASTKGPSVFPLAPSSKSTSGGTAALGCLVKDYFPEPVTVSWNSGALTSGVHTFPAVLQSSGLYSLSSVVTVPSSSLGTQTYICNVNHKPSNTKVDKKVEPKSCDKTHTCPPCPAPEYNWGPMVFLFPPKPKDTLMISRTPEVTCVVVDVSDEDPEVKFNWYVDGVEVHNAKTKPRERQYNATYRVVSVLTVLHQDWLNGKEYKCKVSNKDLPAPIEKTISKAKGQPREPQVCTLPPSRDELTKNQVSLWCLVKGFYPSDIAVEWESNGQPENNYKTTPPVLDSDGSFFLYSKLTVDKSRWQQGNVFSCSVMHEALHNHYTQKSLSLSP chain 2: QDQLVQSGAEVKKPGASVKVSCKASGFNIKDTYIQWVRQAPGQGLEWMGRIDPLRKQTKYREKFEGRVTITADTSTNTAYMELSSLRSEDTAVYYCVRSGREFDYWGQGTLVTVSSASTKGPSVFPLAPSSKSTSGGTAALGCLVKDYFPEPVTVSWNSGALTSGVHTFPAVLQSSGLYSLSSVVTVPSSSLGTQTYICNVNHKPSNTKVDKKVEPKSCDKTHTCPPCPAPELLTGPSVFLFPPKPKDTLMISRTPEVTCVVVDVSHEEPEVKFNWYVDGVEVHNAKTKPREEQYNSTYRVVSVLTVLHQDWLNGKEYKCKVSNDALPKPEEETISKAKGQPREPQVYTLPPSRCELTKNQVSLSCAVKGFYPSDIAVEWESNGQPENNYKTTPPVLDSDGSFFLVSKLTVDKSRWQQGNVFSCSVMHEALHNHYTQKSLSLSP chain 3: DIQMTQSPSSLSASVGDRVTITCRASQDIHKYIAWYQQKPGQAPRLLIQYTSTLQPGVPSRFSGSGSGTDYTFTISSLQPEDIATYYCLQYEQLRTFGGGTKVEIKRTVAAPSVFIFPPSDEQLKSGTASVVCLLNNFYPREAKVQWKVDNALQSGNSQESVTEQDSKDSTYSLSSTLTLSKADYEKHKVYACEVTHQGLSSPVTKSFNRGEC
